Data reported in the RNAGym collection of RNA variant scans (doi:10.7554/elife.80360).

B1: Twister Ribozyme (parent)
chain: AACACUGCCAAUGCCGGUCCCAAGCCCGGAUAAAAGUGGAGGGGGCGG

Variants of: B1
Test: self-cleavage, relative activity (ratio to wild type); higher = more cleavage; co-transcriptional

Variant	self-cleavage
AACACUGCCAAUGCCGGUCCAAAGCCCGGAUAAAUGUGGAGGGGGCGG [C21A A35U]	0.104
AACACUGCCAAUGCCGGUCCAAAGCCCGGAUAAAAGUGGAUGGGGCGG [C21A G41U]	0.678
AACACUGCCAAUGCCGGUCCAAAGCCCGGAUAAAAGUGGACGGGGCGG [C21A G41C]	0.457
AACACUGCCAAUGCCGGUCGCAAGCCCGGAUAAAAGUGGAGGGGGCUG [C20G G47U]	0.131
AACACUGCCAAUGCCGGUCGCAAGCCCGGAUAAAAGUGGAGGGGGCCG [C20G G47C]	0.133
AACACUGCCAAUGCCGGUCGCAAGCCCGGAUAAAAGUGGAGGGGGCAG [C20G G47A]	0.111
AACACUGCCAAUGCCGGUCUCAAGCCCGGAUAAAAGUGGAGGGGGCAG [C20U G47A]	0.859
AACACUGCCAAUGCCGGUCCAAAGCCCGGAUAAAAGUGGAGGGUGCGG [C21A G44U]	0.108
AACACUGCCAAUGCCGGUCCAAAGCCCGGAUAAAAGUGGAGGGAGCGG [C21A G44A]	0.113
AACACUGCCAAUGCCGGUCCAGAGCCCGGAUAAAAGUGGAGGGGGCGG [C21A A22G]	0.101
AACACUGCCAAUGCCGGUCCACAGCCCGGAUAAAAGUGGAGGGGGCGG [C21A A22C]	0.101
AACACUGCCAAUGCCGGUCUCAAGCCCGGAUAAAGGUGGAGGGGGCGG [C20U A35G]	0.664
AACACUGCCAAUGCCGGUCCAAAGCCCGGAUAAAAGUGGAGCGGGCGG [C21A G42C]	0.15
AACACUGCCAAUGCCGGUCCAAAGCCCGGAUAAAAGUGGAGUGGGCGG [C21A G42U]	0.0873
AACACUGCCAAUGCCGGUCCAAAGCCCGGAUAAAAGUGGAGAGGGCGG [C21A G42A]	0.0769
AACACUGCCAAUGCCGGUCCAAAGCCCGGAUAAAAGUGGAGGAGGCGG [C21A G43A]	0.0637
AACACUGCCAAUGCCGGUCCAAAGCCCGGAUAAAAGUGGAGGUGGCGG [C21A G43U]	0.0849
AACACUGCCAAUGCCGGUCCAAAGCCCGGAUAAAAGUGGAGGCGGCGG [C21A G43C]	0.0785
AACACUGCCAAUGCCGGUCCAAAGCCCGGAUAAAAGUGGAGGGGCCGG [C21A G45C]	0.109
AACACUGCCAAUGCCGGUCCAAAGCCCGGAUAAAAGUGGAGGGGUCGG [C21A G45U]	0.121
AACACUGCCAAUGCCGGUCCAAAGCCCGGAUAAAAGUGGAGGGGACGG [C21A G45A]	0.114
AACACUGCCAAUGCCGGUCCAAAGCCCGGAUAGAAGUGGAGGGGGCGG [C21A A33G]	0.0711
AACACUGCCAAUGCCGGUCCAAAGCCCGGAUACAAGUGGAGGGGGCGG [C21A A33C]	0.112
AACACUGCCAAUGCCGGUCCAAAGCCCGGAUAUAAGUGGAGGGGGCGG [C21A A33U]	0.102
AACACUGCCAAUGCCGGUCUCAAGCCCGAAUAAAAGUGGAGGGGGCGG [C20U G29A]	0.81
AACACUGCCAAUGCCGGUCUCAAGCCCGGAUAAAAGUGGAGGGGGCGC [C20U G48C]	1.04
AACACUGCCAAUGCCGGUCCAAAGCCCGGAGAAAAGUGGAGGGGGCGG [C21A U31G]	0.119

Variant	self-cleavage
AACACUGCCAAUGCCGGUCCAAAGCCCGGACAAAAGUGGAGGGGGCGG [C21A U31C]	0.153
AACACUGCCAAUGCCGGUCCAAAGCCCGGAAAAAAGUGGAGGGGGCGG [C21A U31A]	0.0618
AACACUGCCAAUGCCGGUCCAAGGCCCGGAUAAAAGUGGAGGGGGCGG [C21A A23G]	0.0801
AACACUGCCAAUGCCGGUCCAACGCCCGGAUAAAAGUGGAGGGGGCGG [C21A A23C]	0.109
AACACUGCCAAUGCCGGUCCGAAGCCCGGAUAAAGGUGGAGGGGGCGG [C21G A35G]	0.0519
AACACUGCCAAUGCCGGUCCGAAGCCCGGAUAAAUGUGGAGGGGGCGG [C21G A35U]	0.0529
AACACUGCCAAUGCCGGUCCGAAGCCCGGAUAAACGUGGAGGGGGCGG [C21G A35C]	0.0454
AACACUGCCAAUGCCGGUCCAAAGCCCGGAUAAAAGUAGAGGGGGCGG [C21A G38A]	0.109
AACACUGCCAAUGCCGGUCCAAAGCCCGGAUAAAAGUUGAGGGGGCGG [C21A G38U]	0.0847
AACACUGCCAAUGCCGGUCCAAAGCCCGGAUAAAAAUGGAGGGGGCGG [C21A G36A]	0.0703
AACACUGCCAAUGCCGGUCCGAAGCCCGGAUAUAAGUGGAGGGGGCGG [C21G A33U]	0.0662
AACACUGCCAAUGCCGGUCUGAAGCCCGGAUAAAAGUGGAGGGGGCGG [C20U C21G]	0.0649
AACACUGCCAAUGCCGGUCUUAAGCCCGGAUAAAAGUGGAGGGGGCGG [C20U C21U]	0.119
AACACUGCCAAUGCCGGUCUAAAGCCCGGAUAAAAGUGGAGGGGGCGG [C20U C21A]	0.115
AACACUGCCAAUGCCGGUCGCAAGCCCGGAAAAAAGUGGAGGGGGCGG [C20G U31A]	0.103
AACACUGCCAAUGCCGGUCGCAAGCCCGGACAAAAGUGGAGGGGGCGG [C20G U31C]	0.0873
AACACUGCCAAUGCCGGUCGCAAGCCCGGAGAAAAGUGGAGGGGGCGG [C20G U31G]	0.146
AACACUGCCAAUGCCGGUCCAAAGCCCGGAUAAUAGUGGAGGGGGCGG [C21A A34U]	0.102
AACACUGCCAAUGCCGGUCUCAAGCCCGGAUUAAAGUGGAGGGGGCGG [C20U A32U]	0.887
AACACUGCCAAUGCCGGUCUCAAGCCCGGAUCAAAGUGGAGGGGGCGG [C20U A32C]	0.758
AACACUGCCAAUGCCGGUCUCAAGCCCGGAUGAAAGUGGAGGGGGCGG [C20U A32G]	0.82
AACACUGCCAAUGCCGGUCCAAAUCCCGGAUAAAAGUGGAGGGGGCGG [C21A G24U]	0.0879
AACACUGCCAAUGCCGGUCCAAAGCCCGGAUAAAAGUGCAGGGGGCGG [C21A G39C]	0.116
AACACUGCCAAUGCCGGUCCAAAGCCCGGAUAAAAGUGGAGGGGGCAG [C21A G47A]	0.135
AACACUGCCAAUGCCGGUCUCAGGCCCGGAUAAAAGUGGAGGGGGCGG [C20U A23G]	0.121
AACACUGCCAAUGCCGGUCUCACGCCCGGAUAAAAGUGGAGGGGGCGG [C20U A23C]	0.0767
AACACUGCCAAUGCCGGUCUCAAGCCCGGAUAAAAGUGGAGGGGGGGG [C20U C46G]	0.815
